Measured values: doi:10.1101/2021.02.02.429361 (bioRxiv, 2021)

B1: GST-AtMPK3 (enzyme, Arabidopsis thaliana, UniProt Q39023 1-370, looked up)
chain: MNTGGGQYTDFPAVETHGGQFISYDIFGSLFEITSKYRPPIIPIGRGAYGIVCSVLDTETNELVAMKKIANAFDNHMDAKRTLREIKLLRHLDHENIIAIRDVVPPPLRRQFSDVYISTELMDTDLHQIIRSNQSLSEEHCQYFLYQLLRGLKYIHSANIIHRDLKPSNLLLNANCDLKICDFGLARPTSENDFMTEYVVTRWYRAPELLLNSSDYTAAIDVWSVGCIFMELMNRKPLFPGKDHVHQMRLLTELLGTPTESDLGFTHNEDAKRYIRQLPNFPRQPLAKLFSHVNPMAIDLVDRMLTFDPNRRITVEQALNHQYLAKLHDPNDEPICQKPFSFEFEQQPLDEEQIKEMIYQEAIALNPTYG

What was measured:
[1] = biological target: T1, ABI5 (His-ABI5) (Arabidopsis thaliana) (UniProt Q9SJN0); test: EMSA
T1 sequence: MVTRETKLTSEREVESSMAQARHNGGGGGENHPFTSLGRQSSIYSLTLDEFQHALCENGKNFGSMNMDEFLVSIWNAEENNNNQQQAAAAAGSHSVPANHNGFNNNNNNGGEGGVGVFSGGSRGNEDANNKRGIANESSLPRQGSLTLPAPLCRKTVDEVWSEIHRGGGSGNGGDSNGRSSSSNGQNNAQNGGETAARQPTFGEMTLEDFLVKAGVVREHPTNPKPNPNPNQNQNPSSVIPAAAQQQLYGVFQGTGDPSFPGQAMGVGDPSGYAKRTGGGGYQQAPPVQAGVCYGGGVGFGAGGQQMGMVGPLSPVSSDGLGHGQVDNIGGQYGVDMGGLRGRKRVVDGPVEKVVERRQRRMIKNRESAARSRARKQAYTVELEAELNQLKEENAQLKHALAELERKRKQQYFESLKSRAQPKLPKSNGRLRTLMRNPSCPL

[2] = biological target: T2, His-AtABI5 (Arabidopsis thaliana, UniProt Q9SJN0 1-442); test: pull-down
T2 sequence (looked up): T1 sequence

Row | Molecule | binding [1] | binding result [2]
1 | AGTGTTATATAATTTTACGTAACGTAAAACAATACAAAATTTTAATTCCTGAACGAATAAAACGAGTATATTAATTAATTTATTGATCGTATTAAAACGAATATGATCCAATTAAGATTACAATTACTAAAATCCCCACACTATTATTGTCATTATTTAACTATGGCAGATAGATAGATACAGAACCGTAAAGGACGTTAGGAAGAGGAAGAACGTTGACGAAGTCAAC (double strand) [AtMPK3 promoter fragment (-402 to -256)] | binds | 
2 | B1 |  | binds
